Key:
[1] = biological target: hu4-1BB constitutively expressed on NF-kB-luc2/4-1BB Jurkat reporter cells (Promega, #JA2351) (human, UniProt Q07011 24-255); experiment: cell-based or functional assay
[2] = biological target: T1, recombinant His-tagged hu4-1BB (Sino Biological, #10014-H08H) (human, UniProt Q07011 24-186); experiment: titration ELISA on plastic immobilized His-tagged hu4-1BB, GAM-HRP
T1 construct: Bought; also called soluble hu4-1BB; not shown: His tag
T1 sequence (Q07011 24-186 limits assumed): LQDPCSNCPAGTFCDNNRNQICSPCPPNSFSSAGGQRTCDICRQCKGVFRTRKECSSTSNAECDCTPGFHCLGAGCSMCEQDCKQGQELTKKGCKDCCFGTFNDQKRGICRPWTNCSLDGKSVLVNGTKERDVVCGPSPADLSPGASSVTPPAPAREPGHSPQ

Chain of hu4-1BB constitutively expressed on NF-kB-luc2/4-1BB Jurkat reporter cells (Promega, #JA2351) (Q07011 24-255): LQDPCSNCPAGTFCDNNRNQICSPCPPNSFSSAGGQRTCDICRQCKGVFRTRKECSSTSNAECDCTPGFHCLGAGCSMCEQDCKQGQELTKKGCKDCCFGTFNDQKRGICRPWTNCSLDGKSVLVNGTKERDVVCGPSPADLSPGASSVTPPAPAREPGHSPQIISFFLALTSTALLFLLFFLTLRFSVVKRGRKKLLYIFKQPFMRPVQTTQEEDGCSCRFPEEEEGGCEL

B1: urelumab (anti-hu4-1BB, BMS-663513) (antibody, V domains shown)
VH: QVQLQQWGAGLLKPSETLSLTCAVYGGSFSGYYWSWIRQSPEKGLEWIGEINHGGYVTYNPSLESRVTISVDTSKNQFSLKLSSVTAADTAVYYCARDYGPGNYDWYFDLWGRGTLVTVSS
VL: EIVLTQSPATLSLSPGERATLSCRASQSVSSYLAWYQQKPGQAPRLLIYDASNRATGIPARFSGSGSGTDFTLTISSLEPEDFAVYYCQQRSNWPPALTFGGGTKVEIK
EC50 (read off the curve); NF-kB reporter, co-culture with CHO [Cont.) c] [1]: ~0.1 nM | EC50 (read off the curve); NF-kB reporter, co-culture with CHO^huFcγRIIb [Cont.) c] [1]: ~0.06 nM

B2: 4-1BB IgG (SAP3.28 IgG), anti-hu4-1BB chimeric antibody (antibody, V domains shown)
VH: QVQLQESGPGLVRPSQTLSLTCTVSGFSLTSYGVHWVRQPPGRGLEWIGVIWRGGSTDYNAAFMSRLSITKDNSKSQVFFEMNSLQADDTAIYYCASPLGTSWDAMDYWGQGSLVTVSS
VL: DIQMTQSPSSLSASVGDRVTITCRASQDISNYLNWYQQKPGKAPKLLIYYKSRLHSGVPSRFSGSGSGTDYTLTISSLQPEDFATYYCQQGNTLPYTFGQGTKVEIK
notes: Bivalent IgG with the Fc region of murine IgG1, supplied by Prof; M. Glennie; also called SAP3.28 mAb; 4-1EE IgG
EC50 (read off the curve); NF-kB reporter, co-culture with CHO^huFcγRIIb [Cont.) c] [1]: ~1 nM | EC50 (read off the curve) [2]: ~0.2 µg/mL
